Patent US6114506, “Composition and method for enhancing fibrinolysis” (General Hospital Corporation, dated 2000)
Each block holds one binder with its values, some of them ahead of it.

Key:
[1] = biological target: T1, human alpha-2-antiplasmin (human, UniProt P08697, 125I label in the radioimmunoassays of Example 1; biotin in the competition assay of Example 5; unlabelled in the ELISA, plasmin and clot lysis assays)
T1 sequence: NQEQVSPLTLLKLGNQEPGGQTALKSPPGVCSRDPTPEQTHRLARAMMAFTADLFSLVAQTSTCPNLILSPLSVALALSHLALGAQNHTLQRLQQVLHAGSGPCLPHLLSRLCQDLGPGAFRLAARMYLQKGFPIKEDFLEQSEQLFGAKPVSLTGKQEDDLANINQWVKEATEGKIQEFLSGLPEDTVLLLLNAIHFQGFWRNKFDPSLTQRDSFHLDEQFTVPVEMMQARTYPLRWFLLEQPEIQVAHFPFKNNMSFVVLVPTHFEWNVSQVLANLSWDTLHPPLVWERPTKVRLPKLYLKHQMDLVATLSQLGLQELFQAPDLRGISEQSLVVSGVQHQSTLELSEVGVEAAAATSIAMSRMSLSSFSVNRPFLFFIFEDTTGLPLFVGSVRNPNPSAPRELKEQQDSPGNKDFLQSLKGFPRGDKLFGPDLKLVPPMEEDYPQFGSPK

[2] = biological target: T1, human alpha-2-antiplasmin; assay: ELISA: plates coated with α2-antiplasmin (American Diagnostica), anti-human kappa conjugate

plasmin assay with chromogenic substrate: loss in activity [1]: 20 to 30%
B1: h77A3-2 (humanized 77A3) (antibody, V domains shown)
VH: QIQLVQSGAEVKKPGASVKISCKASGYTFTNYGMNWVRQAPGQGLEWMGWINTKSGEPTYAEEFKGRFTFTLDTSTSTAYLEIRSLRSDDTAVYFCARW
VL: DIQMTQSPSSLSASVGDRVTITCRASGNIHNYLAWYQQKQGKSPQLLVYNAKTLASGVPSRFSGSGSGTDFTLTISSLQPEDFGSHY

binding result [2]: binds
B2: h77A3-1 (humanized 77A3) (antibody, V domains shown)
VH: QIQLVQSGSELKKPGASVKISCKASGYTFTNYGMNWVRQAPGQGLEWMGWINTKSGEPTYAEEFKGRFVFSLDTSVTTAYLQISSLKAEDTAVYFCARWVPGTYAMDYWGQGTTVTVSS
VL: DIQMTQSPSSLSASVGDRVTITCRASGNIHNYLAWYQQKQGKSPQLLVYNAKTLASGVPSRFSGSGSGTDFTLTISSLQPEDFGSHYCQHFWTTPWTFGGGTKLEIK
